In paper PMC8041770:

Tests used:
[1] = target: recombinant human LIF, histidine-tagged (hLIF-His) (UniProt P15018); test: flow cytometry of yeast-displayed LIFR variants; conditions: read off a plot
[2] = target: yeast-displayed human LIF (hLIF, Ser23 to Phe203) (human) (UniProt P15018); test: not stated; Supplementary Fig. 7b, not shown; told only in the discussion
[3] = target: yeast-displayed eLIFR CBM I–Ig-like domains ('VPRVVAID') (human); test: flow cytometry on cells; LIFR constructs displayed on yeast (EBY100), soluble tagged cytokine (LIF-His and others) in PBS with 1 mg/ml BSA, detected by antibody to the tag; gated on c-myc-positive yeast; apparent affinity by non-linear regression
[4] = target: yeast-displayed mouse LIFR (mouse) (UniProt P42703); test: flow cytometry on cells; receptor displayed on yeast, soluble cytokine titrated in PBS with 1 mg/ml BSA; bound cytokine detected by fluorescent antibodies; apparent Kd by non-linear regression
Sequence of yeast-displayed mouse LIFR (mouse) (P42703 44-1092): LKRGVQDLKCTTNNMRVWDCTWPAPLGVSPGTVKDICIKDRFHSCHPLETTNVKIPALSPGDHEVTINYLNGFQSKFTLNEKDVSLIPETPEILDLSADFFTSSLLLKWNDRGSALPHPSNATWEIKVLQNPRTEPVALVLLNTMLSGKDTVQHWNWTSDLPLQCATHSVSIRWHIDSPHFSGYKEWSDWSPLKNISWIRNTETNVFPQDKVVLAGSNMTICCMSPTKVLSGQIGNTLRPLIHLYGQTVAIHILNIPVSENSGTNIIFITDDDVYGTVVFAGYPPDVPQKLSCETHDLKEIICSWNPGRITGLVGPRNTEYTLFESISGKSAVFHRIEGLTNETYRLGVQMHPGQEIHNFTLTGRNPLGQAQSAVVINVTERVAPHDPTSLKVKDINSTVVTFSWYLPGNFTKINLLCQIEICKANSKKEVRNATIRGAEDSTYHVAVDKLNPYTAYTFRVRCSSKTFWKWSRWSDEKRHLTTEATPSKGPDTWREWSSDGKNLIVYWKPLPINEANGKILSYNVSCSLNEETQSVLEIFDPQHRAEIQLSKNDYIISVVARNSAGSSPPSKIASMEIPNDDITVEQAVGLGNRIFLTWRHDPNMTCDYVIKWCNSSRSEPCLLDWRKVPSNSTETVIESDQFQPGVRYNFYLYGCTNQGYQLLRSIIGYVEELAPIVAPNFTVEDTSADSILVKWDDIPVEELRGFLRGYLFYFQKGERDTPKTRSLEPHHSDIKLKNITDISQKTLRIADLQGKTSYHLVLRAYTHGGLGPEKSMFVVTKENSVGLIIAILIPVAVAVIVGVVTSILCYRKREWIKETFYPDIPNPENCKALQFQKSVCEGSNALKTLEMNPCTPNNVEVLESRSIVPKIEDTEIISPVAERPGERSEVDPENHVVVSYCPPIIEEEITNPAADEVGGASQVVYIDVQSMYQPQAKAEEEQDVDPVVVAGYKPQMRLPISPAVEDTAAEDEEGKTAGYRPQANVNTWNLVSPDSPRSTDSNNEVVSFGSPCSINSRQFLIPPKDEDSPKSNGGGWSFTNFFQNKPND

Sequence of yeast-displayed wild-type human LIFR CBM I–Ig-like domains (Gln45 to Gln337) (P42702 45-337, stated change not applied): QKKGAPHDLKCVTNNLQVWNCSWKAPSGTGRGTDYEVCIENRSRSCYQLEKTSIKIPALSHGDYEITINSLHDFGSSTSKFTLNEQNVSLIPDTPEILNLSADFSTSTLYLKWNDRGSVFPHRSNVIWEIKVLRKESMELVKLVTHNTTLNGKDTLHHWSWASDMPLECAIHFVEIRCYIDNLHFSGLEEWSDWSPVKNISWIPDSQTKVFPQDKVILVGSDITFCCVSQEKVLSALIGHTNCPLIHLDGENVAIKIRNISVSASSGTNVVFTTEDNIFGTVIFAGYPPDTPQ
Sequence of mLIFR-Fc (mouse LIFR CBM I–Ig-like–CBM II fused to an antibody Fc domain) (P42703 44-529): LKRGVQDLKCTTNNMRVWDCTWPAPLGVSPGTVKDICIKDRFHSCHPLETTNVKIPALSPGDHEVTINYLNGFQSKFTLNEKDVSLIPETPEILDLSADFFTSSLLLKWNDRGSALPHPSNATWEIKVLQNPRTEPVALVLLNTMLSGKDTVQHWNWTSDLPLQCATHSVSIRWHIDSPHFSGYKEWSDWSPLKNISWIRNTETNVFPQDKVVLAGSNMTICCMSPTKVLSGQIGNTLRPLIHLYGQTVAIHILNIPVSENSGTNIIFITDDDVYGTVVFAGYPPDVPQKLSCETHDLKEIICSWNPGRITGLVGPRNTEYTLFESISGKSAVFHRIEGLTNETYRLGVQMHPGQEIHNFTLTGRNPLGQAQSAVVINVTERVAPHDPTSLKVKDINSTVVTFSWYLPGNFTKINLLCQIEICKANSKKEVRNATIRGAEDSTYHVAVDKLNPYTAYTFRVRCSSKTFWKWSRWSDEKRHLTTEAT

Substance “yeast-displayed wild-type human LIFR CBM I–Ig-like domains (Gln45 to Gln337) (from UniProt P42702) PRDSAID” has a ratio to parent [1] of 5.2.
For “mLIFR-Fc (mouse LIFR CBM I–Ig-like–CBM II fused to an antibody Fc domain) (from UniProt P42703 44-529) (Fc fusion)”, the Kd [2] was 1 pM.
For “recombinant human LIF, histidine-tagged (hLIF-His) (from UniProt P15018 23-202) (ligand)”, the Kd [3] was 0.04 nM.
“recombinant human LIF-His (from UniProt P15018 23-202) (ligand)” was tested, and the Kd [4] was 1.1 pM.
